Target: HA-tagged type II TGF-β receptor (TβRII) (human, UniProt P37173 23-567)
Test: patch/FRAP

Chain of HA-tagged type II TGF-β receptor (TβRII) (P37173 23-567): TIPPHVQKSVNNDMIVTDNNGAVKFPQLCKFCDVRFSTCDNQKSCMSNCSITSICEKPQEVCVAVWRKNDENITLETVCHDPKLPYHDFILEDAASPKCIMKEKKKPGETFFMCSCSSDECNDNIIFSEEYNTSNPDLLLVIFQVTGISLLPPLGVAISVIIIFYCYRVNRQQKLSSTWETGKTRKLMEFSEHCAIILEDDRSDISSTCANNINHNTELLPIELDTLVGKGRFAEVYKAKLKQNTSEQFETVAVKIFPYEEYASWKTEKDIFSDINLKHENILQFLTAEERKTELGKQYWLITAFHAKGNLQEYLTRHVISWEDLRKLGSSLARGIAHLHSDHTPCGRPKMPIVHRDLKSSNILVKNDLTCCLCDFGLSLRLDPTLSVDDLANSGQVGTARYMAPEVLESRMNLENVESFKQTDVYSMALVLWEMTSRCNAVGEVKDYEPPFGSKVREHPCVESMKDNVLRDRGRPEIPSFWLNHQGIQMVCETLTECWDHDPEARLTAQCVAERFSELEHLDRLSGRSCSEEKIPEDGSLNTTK

fold increase of complex formation with TGF-β1 against no ligand: ~2 fold
B1: myc-tagged ALK5 (type I TGF-β receptor, TβRI) (receptor)
chain: LQCFCHLCTKDNFTCVTDGLCFVSVTETTDKVIHNSMCIAEIDLIPRDRPFVCAPSSKTGSVTTTYCCNQDHCNKIELPTTVKSSPGLGPVELAAVIAGPVCFVCISLMLMVYICHNRTVIHHRVPNEEDPSLDRPFISEGTTLKDLIYDMTTSGSGSGLPLLVQRTIARTIVLQESIGKGRFGEVWRGKWRGEEVAVKIFSSREERSWFREAEIYQTVMLRHENILGFIAADNKDNGTWTQLWLVSDYHEHGSLFDYLNRYTVTVEGMIKLALSTASGLAHLHMEIVGTQGKPAIAHRDLKSKNILVKKNGTCCIADLGLAVRHDSATDTIDIAPNHRVGTKRYMAPEVLDDSINMKHFESFKRADIYAMGLVFWEIARRCSIGGIHEDYQLPYYDLVPSDPSVEEMRKVVCEQKLRPNIPNRWQSCEALRVMAKIMRECWYANGAARLTALRIKKTLSQLSQQEGIKM
